Laboratory results taken from patent US20120237442A1 (published 2012).

Columns and labels:
human CD20 [1] = target: T1, human CD20 (human, UniProt P11836 1-297); assay: ELISA, reference veltuzumab
T1 construct: whole, on cells
T1 sequence (looked up): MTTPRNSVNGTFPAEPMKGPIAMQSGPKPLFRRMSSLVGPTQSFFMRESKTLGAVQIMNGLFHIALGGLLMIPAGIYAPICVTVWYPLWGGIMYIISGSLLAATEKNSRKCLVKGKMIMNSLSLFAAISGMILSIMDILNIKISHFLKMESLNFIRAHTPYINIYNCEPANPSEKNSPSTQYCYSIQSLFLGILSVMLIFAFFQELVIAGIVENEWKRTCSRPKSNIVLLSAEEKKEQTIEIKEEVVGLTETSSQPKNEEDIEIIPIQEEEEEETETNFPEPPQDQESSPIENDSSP

human CD20 [2] = target: T1, human CD20; assay: flow cytometry on live NHL cells, reference veltuzumab

fold higher binding avidity compared to veltuzumab (human CD20 [1]): 3 fold
fold slower off-rate compared to veltuzumab (human CD20 [2]): 3 fold
B1: 20-(20)-(20) (antibody)
heavy 1: not shown
heavy 2: not shown
light: DIQLTQSPSSLSASVGDRVTMTCRASSSVSYIHWFQQKPGKAPKPWIYATSNLASGVPVRFSGSGSGTDYTFTISSLQPEDIATYYCQQWTSNPPTFGGGTKLEIKRTVAAPSVFIFPPSDEQLKSGTASVVCLLNNFYPREAKVQWKVDNALQSGNSQESVTEQDSKDSTYSLSSTLTLSKADYEKHKVYACEVTHQGLSSPVTKSFNRGEC
modifications: DNL complex locked by disulfide bridges between the cysteines of AD2 and DDD2. Stoichiometry: 2 IgG-AD2 heavy chains, 4 Fd-DDD2 chains, 6 kappa chains. Each unique chain is listed once.
notes: One Fc and 6 anti-CD20 Fabs; also called Hex-hA20; HexAb of veltuzumab
